Laboratory results: PMC10082178

Assays:
[1] = molecular target: integrin αIIbβ3 (human (endogenous in platelets)) (UniProt P05106); assay: native gel or EMSA; SMA-PAGE: whole cell SMALPs of resting human platelets (2.5% SMA, NaCl to 500 mM) on native Tris-Glycine gels, western blot with anti-αIIb or anti-CLEC-2 AYP2
[2] = molecular target: N-terminal eGFP-tagged human CLEC-2 (CLEC-2-eGFP) (human) (UniProt Q9P126)
Chain of UniProt Q9P126 (Q9P126 whole entry): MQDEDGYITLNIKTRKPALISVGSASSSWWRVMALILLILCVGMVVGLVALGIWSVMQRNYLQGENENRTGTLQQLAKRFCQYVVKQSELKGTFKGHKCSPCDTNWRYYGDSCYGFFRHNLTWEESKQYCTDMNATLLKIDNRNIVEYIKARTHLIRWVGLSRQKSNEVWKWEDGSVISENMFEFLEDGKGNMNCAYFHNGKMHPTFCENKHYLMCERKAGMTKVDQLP

stoichiometry N [1] | Substance | NFAT-luciferase response to rhodocytin (30 nM) in low-expressing CLEC-2-eGFP (100 ng) DT40 cells: percent blocked by LUAS-2 (3 μM, 30 min before rhodocytin) [2] [%]
2 | integrin αIIbβ3 (from UniProt P05106 27-788) (complex) | 
 | rhodocytin (complex) | 50
